Measurements published in patent US20260092096A1 (35PHARMA, published 2026).

Key:
Test in all cases: cell-based or functional assay
activin A = target: T1, activin A (human, UniProt P08476 311-426)
T1 sequence (looked up): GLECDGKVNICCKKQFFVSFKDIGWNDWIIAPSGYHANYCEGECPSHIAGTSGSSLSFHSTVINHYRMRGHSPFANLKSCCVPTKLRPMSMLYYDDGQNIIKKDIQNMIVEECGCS

activin B = target: T2, activin B (UniProt P09529 293-407)
T2 sequence (looked up): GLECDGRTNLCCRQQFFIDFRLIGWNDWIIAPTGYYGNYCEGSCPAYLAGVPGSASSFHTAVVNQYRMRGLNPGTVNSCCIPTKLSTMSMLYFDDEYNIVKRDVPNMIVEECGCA

GDF-11 = target: T3, GDF-11 (UniProt O95390 299-407)
T3 sequence (looked up): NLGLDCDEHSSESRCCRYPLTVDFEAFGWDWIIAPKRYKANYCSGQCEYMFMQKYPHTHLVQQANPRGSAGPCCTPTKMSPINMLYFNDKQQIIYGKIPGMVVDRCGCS

GDF-8 = target: T4, GDF-8 (UniProt O14793 267-375)
T4 sequence (looked up): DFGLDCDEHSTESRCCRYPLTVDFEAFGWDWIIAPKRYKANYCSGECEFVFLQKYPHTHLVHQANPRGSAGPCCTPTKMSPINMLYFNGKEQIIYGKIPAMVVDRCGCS

BMP-10 = target: T5, BMP-10 (UniProt O95393 317-424)
T5 sequence (looked up): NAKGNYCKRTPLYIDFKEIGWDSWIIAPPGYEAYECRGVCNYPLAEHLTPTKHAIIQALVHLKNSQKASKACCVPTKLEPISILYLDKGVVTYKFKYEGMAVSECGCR

BMP-9 = target: T6, BMP-9 (UniProt Q9UK05 320-429)
T6 sequence (looked up): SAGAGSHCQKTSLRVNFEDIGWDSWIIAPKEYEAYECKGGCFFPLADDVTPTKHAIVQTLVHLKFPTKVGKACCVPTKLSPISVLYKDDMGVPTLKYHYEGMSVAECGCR

Row | IC50, TGFβ-reporter HEK293 cell-based neutralization assay (activin A) [nM] | fold increase in neutralization potency relative to P75 (activin A) [fold] | IC50, TGFβ-reporter HEK293 cell-based neutralization assay (activin B) [nM] | IC50, TGFβ-reporter HEK293 cell-based neutralization assay (GDF-11) [nM] | IC50, TGFβ-reporter HEK293 cell-based neutralization assay (GDF-8) [nM] | IC50, BMP-reporter HepG2 cell-based neutralization assay (BMP-10) [nM] | IC50, BMP-reporter HepG2 cell-based neutralization assay (BMP-9) [nM] | fold increase in neutralization potency relative to P75 (BMP-9) [fold] | Molecule
1 | 1.5 |  | 2.1 | 1.6 |  | 2.5 | 3.5 |  | P754 (hActRIIB T69Q, 14 aa linker, IgG1-DL) (Fc fusion)
2 | 3.5 |  | 6 | 2.1 | 2 | 4 | 1.1 | 2 | P739 (hActRIIB G27E, 14 aa linker, IgG1-DL) (Fc fusion)
3 | 0.53 |  | 2 | 0.39 | 0.33 | > 100 | > 1000 |  | P1375 (hActRIIB L33W, 19 aa linker, IgG1 YTE-DL) (Fc fusion) ETRECIYYNANWELERTNQSGLERCEGEQDKRWHCYASWRNSSGTIELVKKGCWLDDFNCYDRQECVATEENPQVYFCCCEGNFCNERFTHLPEAGGPEVTYEPPPTGGGGSGGGGSGGGGSGGGGTHTCPPCPAPELLGGPSVFLFPPKPKDTLYITREPEVTCVVVDVSHEDPEVKFNWYVDGVEVHNAKTKPREEQYNSTYRVVSVLTVLHQDWLNGKEYKCKVSNKALPAPIEKTISKAKGQPREPQVYTLPPSRDELTKNQVSLTCLVKGFYPSDIAVEWESNGQPENNYKTTPPVLDSDGSFFLYSKLTVDKSRWQQGNVFSCSVMHEALHNHYTQKSLSLSPG

Continued, molecule first:

Row | Molecule | IC50, TGFβ-reporter HEK293 cell-based neutralization assay (activin A) [nM] | fold increase in neutralization potency relative to P75 (activin A) [fold] | IC50, TGFβ-reporter HEK293 cell-based neutralization assay (activin B) [nM] | IC50, TGFβ-reporter HEK293 cell-based neutralization assay (GDF-11) [nM] | IC50, TGFβ-reporter HEK293 cell-based neutralization assay (GDF-8) [nM] | IC50, BMP-reporter HepG2 cell-based neutralization assay (BMP-10) [nM] | IC50, BMP-reporter HepG2 cell-based neutralization assay (BMP-9) [nM] | fold increase in neutralization potency relative to P75 (BMP-9) [fold]
4 | P753 (hActRIIB T69H, 14 aa linker, IgG1-DL) (Fc fusion) | 1.6 | 1.5 | 2.4 | 1.5 | 1.4 | 2.9 | 2.1 | 
5 | P1372 (hActRIIB L33W, 14 aa linker, IgG1 YTE-DL) (Fc fusion) ETRECIYYNANWELERTNQSGLERCEGEQDKRWHCYASWRNSSGTIELVKKGCWLDDFNCYDRQECVATEENPQVYFCCCEGNFCNERFTHLPEAGGPEVTYEPPPTGGGGSGGGGSGGGGTHTCPPCPAPELLGGPSVFLFPPKPKDTLYITREPEVTCVVVDVSHEDPEVKFNWYVDGVEVHNAKTKPREEQYNSTYRVVSVLTVLHQDWLNGKEYKCKVSNKALPAPIEKTISKAKGQPREPQVYTLPPSRDELTKNQVSLTCLVKGFYPSDIAVEWESNGQPENNYKTTPPVLDSDGSFFLYSKLTVDKSRWQQGNVFSCSVMHEALHNHYTQKSLSLSPG | 0.56 |  | 2 | 0.53 | 0.18 | > 100 | > 1000 | 
